From patent US6699969

Target: taxol-stabilized microtubules prepared from bovine brain tubulin, P81947
Sequence (P81947 whole entry, chain 1 of 2): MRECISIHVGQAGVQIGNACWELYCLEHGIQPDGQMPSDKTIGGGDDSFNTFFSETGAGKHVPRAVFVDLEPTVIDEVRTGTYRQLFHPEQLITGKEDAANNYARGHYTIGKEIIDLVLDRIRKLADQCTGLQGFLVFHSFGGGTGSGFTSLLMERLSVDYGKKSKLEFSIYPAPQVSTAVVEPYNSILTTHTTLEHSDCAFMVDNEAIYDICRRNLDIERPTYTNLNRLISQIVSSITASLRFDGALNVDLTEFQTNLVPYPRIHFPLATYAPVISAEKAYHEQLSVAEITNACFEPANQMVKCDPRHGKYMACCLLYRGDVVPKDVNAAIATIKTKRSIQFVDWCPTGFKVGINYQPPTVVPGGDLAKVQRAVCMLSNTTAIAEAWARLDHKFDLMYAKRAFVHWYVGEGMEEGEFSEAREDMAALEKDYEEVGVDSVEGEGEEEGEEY
Sequence (chain, as listed by the source, chain 2 of 2): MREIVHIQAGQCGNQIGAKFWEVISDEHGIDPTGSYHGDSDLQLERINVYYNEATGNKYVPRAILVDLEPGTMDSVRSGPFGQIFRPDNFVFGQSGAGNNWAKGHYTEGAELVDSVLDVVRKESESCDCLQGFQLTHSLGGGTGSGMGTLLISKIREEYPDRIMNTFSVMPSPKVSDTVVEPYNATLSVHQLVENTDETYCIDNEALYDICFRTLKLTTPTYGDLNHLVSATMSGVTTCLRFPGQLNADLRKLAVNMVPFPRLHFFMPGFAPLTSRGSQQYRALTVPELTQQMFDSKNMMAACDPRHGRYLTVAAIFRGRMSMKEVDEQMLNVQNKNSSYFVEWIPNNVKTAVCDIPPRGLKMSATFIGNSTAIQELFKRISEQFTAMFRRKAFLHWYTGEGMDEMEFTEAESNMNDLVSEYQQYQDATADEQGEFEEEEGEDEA

Protein	ATPase activity (ATP turnover), stimulation by microtubules	maximal microtubule-stimulated ATPase rate	microtubule concentration at peak ATPase stimulation	microtubule severing, fluorescence microscopy assay	microtubule-stimulated ATPase activity
baculovirus co-expressed S. purpuratus katanin p60/p80 heterodimer, each subunit with N-terminal His(6) tag (protein) chain 1: MSVDEICENTKMGREYALLGNYETSLVYYQGVLQQIQKLLTSVHEPQRKHQWQTIRQELSQEYEHVKNITKTLNGFKSEPAAPEPAPNHGRAAPFSHHQHAAKPAAAEPARDPDVWPPPTPVDHRPSPPYQRAARKDPPRRSEPSKPANRAPGNDRGGRGPSDRRGDARSGGGGRGGARGSDKDKNRGGKSDKDKKAPSGEEGDEKKFDPAGYDKDLVENLERDIVQRNPNVHWADIAGLTEAKRLLEEAVVLPLWMPDYFKGIRRPWKGVLMVGPPGTGKTMLAKAVATECGTTFFNVSSASLTSKYHGESEKLVRLLFEMARFYAPSTIFIDEIDSICSKRGTGSEHEASRRVKSELLIQMDGVSGPSAGEESSKMVMVLAATNFPWDIDEALRRRLEKRIYIPLPEIDGREQLLRINLKEVPLADDIDLKSIAEKMDGYSGADITNVCRDASMMAMRRRIQGLRPEEIRHIPKEELNQPSTPADFLLALQKVSKSVGKEDLVKYMAWMEEFGSV chain 2: MATKRAWKLQELVAHSSNVNCLALGPMSGRVMVTGGEDKKVNLWAVGKQNCIISLSGHTSPVDSVKFNSSEELVVAGSQSGTMKIYDLEPAKIVRTLTGHRNSIRCMDFHPFGEFVASGSTDTNVKLWDVRRKGCIYTYKGHSDQVNMIKFSPDGKWLVTASEDTTIKLWDLTMGKLFQEFKNHTGGVTGIEFHPNEFLLASGSSDRTVQFWDLETFQLVSSTSPGASAVRSISFHPDGSYLFCSSQDMLHAFGWEPIRCFDTFSVFWGKVADTVIASTQLIGASFNATNVSVYVADLSRMSTTGIAQEPQSQPSKTPSGGAEEVPSKPLTASGRKNFVRERPHTTSSKQRQPDVKSEPERQSPTQDEGVKDDDATDIKDPDSYAKIFSPKTRVDHSPERNAQPFPAPLDVPGAQEPEPFKHPPKPAAAAAVAPVSRAPAPSASDWQPAQANPAPNRVPAATKPVPAQEVAPSRKPDPISTIIPSDRNKPANLDMDAFLPPAHAQQAPRVNAPASRKQSDSERIEGLRKGHDSMCQVLSSRHRNLDVVRAIWTAGDAKTSVESVVNMKDQAILVDILNIMLLKKSLWNLDMCVVVLPRLKELLSSKYENYVHTSCACLKLILKNFTSLFNQNIKCPPSGIDITREERYNKCSKCYSYLIATRGYVEEKQHVSGKLGSSFRELHLLLDQLE	this activity was stimulated ~10-fold by microtubules	maximal microtubule-stimulated rate of 3 ATP/katanin/sec	peak at ~2 uM tubulin	Both p60 and p60/p80 severed microtubules in this assay	
baculovirus-expressed S. purpuratus katanin p60 subunit with N-terminal His(6) tag (protein) MSVDEICENTKMGREYALLGNYETSLVYYQGVLQQIQKLLTSVHEPQRKHQWQTIRQELSQEYEHVKNITKTLNGFKSEPAAPEPAPNHGRAAPFSHHQHAAKPAAAEPARDPDVWPPPTPVDHRPSPPYQRAARKDPPRRSEPSKPANRAPGNDRGGRGPSDRRGDARSGGGGRGGARGSDKDKNRGGKSDKDKKAPSGEEGDEKKFDPAGYDKDLVENLERDIVQRNPNVHWADIAGLTEAKRLLEEAVVLPLWMPDYFKGIRRPWKGVLMVGPPGTGKTMLAKAVATECGTTFFNVSSASLTSKYHGESEKLVRLLFEMARFYAPSTIFIDEIDSICSKRGTGSEHEASRRVKSELLIQMDGVSGPSAGEESSKMVMVLAATNFPWDIDEALRRRLEKRIYIPLPEIDGREQLLRINLKEVPLADDIDLKSIAEKMDGYSGADITNVCRDASMMAMRRRIQGLRPEEIRHIPKEELNQPSTPADFLLALQKVSKSVGKEDLVKYMAWMEEFGSV			peak at ~2 uM tubulin	Both p60 and p60/p80 severed microtubules in this assay	p60 alone displayed a microtubule-stimulated ATPase activity
